Measured values as given in patent US20180282393A1 (IMMATICS BIOTECHNOLOGIES, published 2018).

Target: T1, HLA-A*02:01 (human)
T1 construct: Captured on streptavidin plates and detected with anti-b2m; also called peptide-receptive MHC molecules; MHC class I
Assay: UV-ligand exchange, anti-b2m ELISA; peptide exchange yield grade (+ >=10%, ++ >=20%, +++ >=50, ++++ >=75%)
From the text: Candidate peptides for T cell based therapies according to the present invention were further tested for their MHC binding capacity (affinity). The individual peptide-MHC complexes were produced by UV-ligand exchange, where a UV-sensitive peptide is cleaved upon UV-irradiation, and exchanged with the peptide of interest as analyzed. Only peptide candidates that can effectively bind and stabilize the peptide-receptive MHC molecules prevent dissociation of the MHC complexes. To determine the yield of the exchange reaction, an ELISA was performed based on the detection of the light chain (β2m) of stabilized MHC complexes. The assay was performed as generally described in Rodenko et al. (Rodenko et al., 2006).
96 well MAXISorp plates (NUNC) were coated over night with 2 ug/ml streptavidin in PBS at room temperature, washed 4× and blocked for 1 h at 37° C. in 2% BSA containing blocking buffer. Refolded HLA-A*02:01/MLA-001 monomers served as standards, covering the range of 15-500 ng/ml. Peptide-MHC monomers of the UV-exchange reaction were diluted 100 fold in blocking buffer. Samples were incubated for 1 h at 37° C., washed four times, incubated with 2 ug/ml HRP conjugated anti-β2m for 1 h at 37° C., washed again and detected with TMB solution that is stopped with […]. Absorption was measured at 450 nm. Candidate peptides that show a high exchange yield (preferably higher than 50%, most preferred higher than 75%) are generally preferred for a generation and production of antibodies or fragments thereof, and/or T cell receptors or fragments thereof, as they show sufficient avidity to the MHC molecules and prevent dissociation of the MHC complexes.

Binder: ALLDGGSEAYWRV
- peptide exchange yield: 50 to 75%

Binder: KITEAIQYV
- peptide exchange yield: 50 to 75%

Binder: ILASLATSV
- peptide exchange yield: 50 to 75%

Binder: KVADYIPQL
- peptide exchange yield: 50 to 75%

Binder: VLVPYEPPQV
- peptide exchange yield: 20 to 50%

Binder: KVANIIAEV
- peptide exchange yield: 20 to 50%

Binder: GQDVGRYQV
- peptide exchange yield: 20 to 50%

Binder: ALQEALENA
- peptide exchange yield: 20 to 50%

Binder: AVLPHVDQV
- peptide exchange yield: 50 to 75%

Binder: HLLGHLEQA
- peptide exchange yield: 50 to 75%

Binder: ALADGVVSQA
- peptide exchange yield: 50 to 75%

Binder: HLIAEIHTA (also called PTHL-001)
- peptide exchange yield: 50 to 75%

Binder: SLAESLDQA
- peptide exchange yield: 50 to 75%

Binder: NIIELVHQV
- peptide exchange yield: ≥ 75%

Binder: FLDNGPKTI
- peptide exchange yield: 50 to 75%

Binder: SLADSLYNL
- peptide exchange yield: 20 to 50%

Binder: SIYEYYHAL
- peptide exchange yield: 50 to 75%

Binder: KLIDDVHRL
- peptide exchange yield: ≥ 75%

Binder: SILRHVAEV
- peptide exchange yield: 20 to 50%

Binder: VLINTSVTL
- peptide exchange yield: 50 to 75%

Binder: SLDENSDQQV
- peptide exchange yield: 50 to 75%
